Test results: paper PMC11322871, “AlphaFold2 assists in providing novel mechanistic insights into the interactions among the LUBAC subunits” (Acta Biochimica et Biophysica Sinica, 2024)

T1: HOIP (466-695) (human, UniProt Q96EP0 466-695)
T1 construct: HOIP, human, residues 466-695 (HOIP-UBA together with HOIP 629-695); also called HOIP domain (residues 466-695)
T1 sequence (looked up): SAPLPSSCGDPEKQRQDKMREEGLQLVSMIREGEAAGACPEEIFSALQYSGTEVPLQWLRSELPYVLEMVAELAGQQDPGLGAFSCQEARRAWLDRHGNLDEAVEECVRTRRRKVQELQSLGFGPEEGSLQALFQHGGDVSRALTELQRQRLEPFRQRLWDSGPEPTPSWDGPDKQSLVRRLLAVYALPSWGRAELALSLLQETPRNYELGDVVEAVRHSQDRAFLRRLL

B1: HOIP (629-695) (domain or fragment)
chain: PEPTPSWDGPDKQSLVRRLLAVYALPSWGRAELALSLLQETPRNYELGDVVEAVRHSQDRAFLRRLL
B2: HOIL-1L-UBL domain (residues 55-135) (domain or fragment, human, UniProt Q9BYM8-1 55-135, looked up)
chain: IRLWVSVEDAQMHTVTIWLTVRPDMTVASLKDMVFLDYGFPPVLQQWVIGQRLARDQETLHSHGVRQNGDSAYLYLLSARN
notes: HOIL-1L, human, UBL domain, residues 55-135; also called HOIL-UBL

Tests used:
[1] = target: HOIP-UBA domain (residues 466-629) (human) (UniProt Q96EP0); assay: SPR; Biacore T200; the HOIL-1L and SHARPIN constructs mixed at the same concentration and incubated at 16°C for 2 h before analysis against HOIP-UBA (466-630); who was immobilised is not stated
[2] = target: B2; assay: ITC; MicroCal PEAQ-ITC; cell and syringe not stated
[3] = target: B2; assay: SPR; Biacore T200; HOIL-1L-UBL immobilised on the sensor chip, HOIP fragments flowed over
HOIP (466-695) [4] = target: T1, HOIP (466-695); assay: ITC; MicroCal PEAQ-ITC; cell and syringe not stated; settings: both partners purified
HOIP (466-695) [5] = target: T1, HOIP (466-695); assay: SPR; Biacore T200; HOIL-1L-UBL immobilised on the sensor chip, HOIP fragments flowed over; settings: both partners purified

## HOIL-1L (5-135) and SHARPIN (127-309), containing the LTM domain, mixed before SPR (from UniProt Q9BYM8-1 5-135; Q9H0F6 127-309) (complex)
[1]
  Kd: 496 nM

## HOIP-UBA domain (residues 466-629) (from UniProt Q96EP0 466-629) (domain or fragment)
[2]
  Kd: 4300 nM
[3]
  Kd: 543 nM

## HOIL-1L-UBL and SHARPIN-UBL without the LTM domain, mixed before SPR (from UniProt Q9BYM8-1 55-135; Q9H0F6 206-309) (complex)
[1]
  Kd: 72.1 nM

## B1
[3]; both partners purified
  Kd: 989 nM

## B2
HOIP (466-695) [4]
  Kd: 800 ± 200 nM
HOIP (466-695) [5]
  Kd: 359 nM
